Assay [1] addresses CaM-free full-length murine inducible nitric-oxide synthase, expressed and purified in the absence of CaM (murine) (UniProt P29477).
For assay [2] the target is unchanged. The assay is described as follows: ITC; single injection mode; 20 μM iNOSfl (-CaM) (dissolved in 200 μl) against 8 μM CaM (dissolved in 2 ml); 40 mM EPPS, 10% glycerol, 150 mM NaCl, 2 mM Ca2+; single-site binding model. On the technique in general: In ITC the heat of successive injections is recorded.

Sequence of UniProt P29477 (P29477 whole entry): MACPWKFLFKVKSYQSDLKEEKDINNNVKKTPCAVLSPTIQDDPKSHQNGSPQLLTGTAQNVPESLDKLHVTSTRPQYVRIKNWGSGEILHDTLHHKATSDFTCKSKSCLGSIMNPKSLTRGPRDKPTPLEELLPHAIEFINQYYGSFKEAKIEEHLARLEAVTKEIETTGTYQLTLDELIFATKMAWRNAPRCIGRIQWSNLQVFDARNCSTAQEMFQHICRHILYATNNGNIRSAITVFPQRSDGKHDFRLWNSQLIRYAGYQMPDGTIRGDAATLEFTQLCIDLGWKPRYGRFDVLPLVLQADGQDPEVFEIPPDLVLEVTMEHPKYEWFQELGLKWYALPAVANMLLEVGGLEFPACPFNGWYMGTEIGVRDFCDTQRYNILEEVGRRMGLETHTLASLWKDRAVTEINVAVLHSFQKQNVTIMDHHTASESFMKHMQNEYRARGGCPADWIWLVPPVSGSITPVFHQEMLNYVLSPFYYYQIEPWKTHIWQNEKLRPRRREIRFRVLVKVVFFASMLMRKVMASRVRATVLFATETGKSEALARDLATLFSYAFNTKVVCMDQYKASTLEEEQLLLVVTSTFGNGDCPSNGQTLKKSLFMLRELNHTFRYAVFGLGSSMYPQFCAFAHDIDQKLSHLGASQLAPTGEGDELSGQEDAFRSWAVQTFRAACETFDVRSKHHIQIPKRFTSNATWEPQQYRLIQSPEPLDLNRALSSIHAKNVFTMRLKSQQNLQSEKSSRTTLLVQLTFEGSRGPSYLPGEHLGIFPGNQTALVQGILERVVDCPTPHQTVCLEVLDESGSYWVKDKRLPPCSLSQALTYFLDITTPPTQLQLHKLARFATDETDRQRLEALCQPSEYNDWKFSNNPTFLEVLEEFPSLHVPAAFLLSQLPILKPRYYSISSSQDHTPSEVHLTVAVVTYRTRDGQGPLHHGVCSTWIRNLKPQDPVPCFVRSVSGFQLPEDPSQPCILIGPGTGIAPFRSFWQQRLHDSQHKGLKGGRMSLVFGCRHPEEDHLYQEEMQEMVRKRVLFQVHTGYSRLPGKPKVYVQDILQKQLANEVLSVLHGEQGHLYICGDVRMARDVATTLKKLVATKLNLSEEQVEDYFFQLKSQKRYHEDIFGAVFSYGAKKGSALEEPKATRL

Turning to “calmodulin (added in vitro) (from UniProt P0DP23 1-149) (natural protein)”, the steady-state NO synthesis activity (oxyhemoglobin assay, 1 μM CaM in the assay buffer, 25°C) (min^-1 per μg of protein) in assay [1] is 10.8. In assay [2], the dH stood at 489 kcal/mol.
